Test results published in US20250277196A1, “EPSPS MUTANTS AND METHOD OF ITS USES” (CROPEDIT BIOTECHNOLOGY INC., priority 2021, published 2025).

Legend:
E. coli lacking EPSPS = experiment: Glyphosate resistance comparison among rice EPSPS mutants: growth of transformed E. coli on M9 medium with different glyphosate concentrations; type: cell-based, Escherichia coli
Procedure: a) PCR system: According to the primer and template mixed PCR system corresponding to the target vector in the above table, the forward primer was 1.25 μl, the reverse primer was 1.25 μl, the template plasmid was 2 μl, the Q5 PCR master mix was 12.5 μl, and ddH2O was […].
b) PCR reaction conditions were as following: the annealing temperature was set according to the annealing temperature corresponding to the target carrier in the above table.
c) Took out 5 μl of the obtained PCR product and added it to the loading buffer for agarose gel electrophoresis. A band with a size of about 4.5 kb was considered successful.
d) Used NEB's KLD enzyme mixture to remove the template and connected the PCR product. The connection system was 5 μl KLD buffer, 1 μl KLD MIX, 1 μl PCR product, and ddH2O 3 μl. After ligating at room temperature for 5 min, transformed it into E. coli.
e) The ligation product was transformed into Dh5a competent E. coli lacking EPSPS. After resuscitation, the cells were washed twice with M9 medium, and then the washed cells were spread on M9 medium and cultured for 48 h. Sequenced the grown single colony (Tsingke Biological Technology Co., Ltd.), and selected the correct mutant to save for future use.
OsWt represents the wild type rice EPSPS(SEQ ID NO:2). […] OsGA represents the mutated rice EPSPS with mutation G172A. (SEQ ID NO:7) OsPS represents the mutated rice EPSPS with mutation P177S. (SEQ ID NO:8) OsGAPS represents the mutated rice EPSPS with mutation G172A and P177S. (SEQ ID NO:9) OsGAVA represents the mutated rice EPSPS with mutation G172A and V403A(SEQ ID NO:4). OsPSVA represents the mutated rice EPSPS with mutation P177S and V403A(SEQ ID NO:5). OsGPV represents the mutated rice EPSPS with mutation G172A, P177S and V403A(SEQ ID NO:6). OsTIPS represents the mutated rice EPSPS with mutation T173I and P177S. (SEQ ID NO: 35). OsTIPT represents the mutated rice EPSPS with mutation T173I and P177T. (SEQ ID NO:36). OsTIPSVA represents the mutated rice EPSPS with mutation T173I, P177S and V403A. (SEQ ID NO:37). OsTIPTVA represents the mutated rice EPSPS with mutation T173I, P177T and V403A. (SEQ ID NO:38). CP4 represents the wild type EPSPS from Agrobacterium tumefaciens. (SEQ ID NO:39)
Each product obtained from the above steps were transformed into E. coli lacking EPSPS. By detecting the growth of the transformed Escherichia coli on M9 medium containing different glyphosate concentrations (0 mM, 0.5 mM, 2 mM, 4 mM, 5 mM, 25 mM, 75 mM, 100 mM), the 1 mM glyphosate here was equivalent to […] glyphosate acid, the glyphosate resistance of rice EPSPS mutants was verified.

[1] = test system: T1 generation transgenic rice; experiment: Glyphosate resistance of T1 generation transgenic rice seedlings (FIG. 10); type: in vivo; conditions: 100 ppm glyphosate aqueous solution (Roundup), cultivated 10 days; wild-type rice control significantly inhibited and died
Text: The rice seed used in this example is RICE KENG XIANG DA008-169, which is publicly available.
Nucleic acid sequence encoding OsGPV mutants (comprising G172A, P177S and V403A) (SEQ ID NO:6) were inserted into the plant expression vector according to the conventional methods to obtain the pk510 vector expressing the OsGPV gene. (see FIG. 9)
1) The transgenic vector pk510 was introduced into Agrobacterium EHA105 to obtain recombinant Agrobacterium.
2) One to five days before the transformation experiment, recombinant Agrobacterium was inoculated on YEB solid medium containing 50 mg/L kanamycin and 15 mg/L rifampicin. The medium was sealed in the dish with 3M tape; kept at temperature at 28° C. in an inverted dish orientation and cultured it in dark for one to five days.
3) The bacteria was scraped at the “Z”-shaped tail with the inoculation ring, and gently suspended in […] NB liquid medium containing 2 mg/L 2,4-dichlorophenoxyacetic acid to make the concentration of the bacteria liquid reach approximately O.D. 600=0.1, and then reserve the make Agrobacterium infection solution.
4) After removing the rice seed coat, the rice seed was placed in a triangular flask, washed 3 times with sterile water. 75% alcohol was added to immerse the seeds, shaken gently for 1 min, and the alcohol discarded. […]

B1: OsGPV: mutated rice EPSPS with mutation G172A, P177S and V403A (SEQ ID NO:6) (protein)
chain: MAAKAEEIVLQPIREISGAVQLPGSKSLSNRILLLSALSEGTTVVDNLLNSEDVHYMLEALKALGLSVEADKVAKRAVVVGCGGKFPVEKDAKEEVQLFLGNAATAMRSLTAAVTAAGGNATYVLDGVPRMRERPIGDLVVGLKQLGADVDCFLGTECPPVRVKGIGGLPGGKVKLSGSISSQYLSALLMAAPLALGDVEIEIIDKLISIPYVEMTLRLMERFGVKAEHSDSWDRFYIKGGQKYKSPGNAYVEGDASSASYFLAGAAITGGTVTVQGCGTTSLQGDVKFAEVLEMMGAKVTWTDTSVTVTGPPREPYGKKHLKAVDVNMNKMPDAAMTLAVVALFADGPTAIRDVASWRVKETERMVAIRTELTKLGASVEEGPDYCIITPPEKLNITAIDTYDDHRMAMAFSLAACADVPVTIRDPGCTRKTFPNYFDVLSTFVRN
modifications: This sequence is synthesized in lab.
B1 was tested, and the “glyphosate resistance compared with CP4 EPSPS” value (E. coli lacking EPSPS; 100 mM glyphosate medium, FIG. 2) was “comparable”, the “glyphosate concentration of the medium on which the strain can grow” value (E. coli lacking EPSPS; M9 medium, tested 0, 0.5, 2, 4, 5, 25, 75, 100 mM glyphosate, FIG. 2, FIG. 3) was 100 mM and the “growth of transgenic rice seedlings in glyphosate solution” value [1] was “not significantly affected”.
